From US20250281613A1 (CELLECTIS S A, published 2025)

Molecular target: T1, CS1 recombinant protein (SEQ ID NO: 97), plate-bound
T1 chain: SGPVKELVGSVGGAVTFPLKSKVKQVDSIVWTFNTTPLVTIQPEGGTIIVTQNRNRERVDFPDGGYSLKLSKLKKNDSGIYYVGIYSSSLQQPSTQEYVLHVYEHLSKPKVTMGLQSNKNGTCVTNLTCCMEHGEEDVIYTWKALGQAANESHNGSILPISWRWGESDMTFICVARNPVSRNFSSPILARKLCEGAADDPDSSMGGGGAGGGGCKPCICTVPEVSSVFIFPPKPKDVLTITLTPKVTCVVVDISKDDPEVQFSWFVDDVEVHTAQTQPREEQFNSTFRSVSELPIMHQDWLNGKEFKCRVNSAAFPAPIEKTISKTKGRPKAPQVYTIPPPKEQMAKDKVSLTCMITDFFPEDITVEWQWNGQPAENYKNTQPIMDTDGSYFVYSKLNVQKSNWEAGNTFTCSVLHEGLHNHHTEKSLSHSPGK
Test: cell-based or functional assay

- RNA-seq of CAR+ T cells 24 h after activation on plate-bound CS1 protein versus unactivated cells: genes induced (fold change greater than 5): 159 genes
B1: CS1-specific second generation CAR (SEQ ID NO: 96) on T cells (other)
chain: QVQLQQPGAELVRPGASVKLSCKASGYSFTTYWMNWVKQRPGQGLEWIGMIHPSDSETRLNQKFKDKATLTVDKSSSTAYMQLSSPTSEDSAVYYCARSTMIATRAMDYWGQGTSVTVSSGGGGSGGGGSGGGGSDIVMTQSQKSMSTSVGDRVSITCKASQDVITGVAWYQQKPGQSPKLLIYSASYRYTGVPDRFTGSGSGTDFTFTISNVQAEDLAVYYCQQHYSTPLTFGAGTKLELKTTTPAPRPPTPAPTIASQPLSLRPEACRPAAGGAVHTRGLDFACDIYIWAPLAGTCGVLLLSLVITLYCKRGRKKLLYIFKQPFMRPVQTTQEEDGCSCRFPEEEEGGCELRVKFSRSADAPAYQQGQNQLYNELNLGRREEYDVLDKRRGRDPEMGGKPRRKNPQEGLYNELQKDKMAEAYSEIGMKGERRRGKGHDGLYQGLSTATKDTYDALHMQALPPR
